Experimental data reported in patent US20150344570A1 (published 2015).

T1: FcγRIIa R (human, UniProt P12318 34-217)
T1 construct: extracellular domain; also called FcgRIIa R type; 2aR; not shown: His tag at the C terminus
T1 sequence (looked up): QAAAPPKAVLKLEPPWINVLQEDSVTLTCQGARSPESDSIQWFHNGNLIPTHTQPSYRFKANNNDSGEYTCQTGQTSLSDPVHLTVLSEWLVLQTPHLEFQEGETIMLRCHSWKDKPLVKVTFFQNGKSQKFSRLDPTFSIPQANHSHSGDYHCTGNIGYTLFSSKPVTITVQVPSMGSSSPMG

T2: FcγRIIb (human, UniProt P31994 43-217)
T2 construct: extracellular domain; also called FcgRIIb; 2b; not shown: His tag at the C terminus
T2 sequence (looked up): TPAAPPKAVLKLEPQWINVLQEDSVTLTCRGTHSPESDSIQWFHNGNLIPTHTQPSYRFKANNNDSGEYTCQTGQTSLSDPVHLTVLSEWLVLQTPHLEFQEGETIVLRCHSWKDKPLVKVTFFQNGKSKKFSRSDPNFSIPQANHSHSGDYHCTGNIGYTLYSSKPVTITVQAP


Legend:
FcγRIIa R [1] = target: T1, FcγRIIa R; assay: SPR, relative to GpH7-A5/GpH7-B3/GpL16-k0
FcγRIIb = target: T2, FcγRIIb; assay: SPR, relative to GpH7-A5/GpH7-B3/GpL16-k0
FcγRIIa R [2] = target: T1, FcγRIIa R; assay: SPR; He/Con_2aR divided by He/Con_2b (FcγRIIa R over FcγRIIb)

Row | Binder | He/Con_2aR (FcγRIIa R [1]) [control = 100] | He/Con_2b (FcγRIIb) [control = 100] | He_2aR/2b (FcγRIIa R [2]) [ratio]
1 | GpH7-A5/GpH7-B3 variant S239_10E/GpL16-k0 (antibody, human IgG1, kappa, Heterodimerized anti-glypican-3 IgG1; mutation in the GpH7-B3 chain only; also called He Ab) heavy 1: not shown heavy 2: not shown light: DIVMTQSPLSLPVTPGEPASISCQASESLVHSNRNTYLHWYLQKPGQSPQLLIYKVSNRFSGVPDRFSGSGSGTDFTLKISRVEAEDVGVYYCSQNTHVPPTFGQGTKVEIERTVAAPSVFIFPPSDEQLKSGTASVVCLLNNFYPREAKVQWKVDNALQSGNSQESVTEQDSKDSTYSLSSTLTLSKADYEKHKVYACEVTHQGLSSPVTKSFNRGEC | 135 | 181 | 0.75
2 | GpH7-A5/GpH7-B3 variant S267_06M/GpL16-k0 (antibody, human IgG1, kappa, Heterodimerized anti-glypican-3 IgG1; mutation in the GpH7-B3 chain only; also called He Ab) heavy 1: not shown heavy 2: not shown light: DIVMTQSPLSLPVTPGEPASISCQASESLVHSNRNTYLHWYLQKPGQSPQLLIYKVSNRFSGVPDRFSGSGSGTDFTLKISRVEAEDVGVYYCSQNTHVPPTFGQGTKVEIERTVAAPSVFIFPPSDEQLKSGTASVVCLLNNFYPREAKVQWKVDNALQSGNSQESVTEQDSKDSTYSLSSTLTLSKADYEKHKVYACEVTHQGLSSPVTKSFNRGEC | 122 | 210 | 0.58
3 | GpH7-A5/GpH7-B3 variant S267_11K/GpL16-k0 (antibody, human IgG1, kappa, Heterodimerized anti-glypican-3 IgG1; mutation in the GpH7-B3 chain only; also called He Ab) heavy 1: not shown heavy 2: not shown light: DIVMTQSPLSLPVTPGEPASISCQASESLVHSNRNTYLHWYLQKPGQSPQLLIYKVSNRFSGVPDRFSGSGSGTDFTLKISRVEAEDVGVYYCSQNTHVPPTFGQGTKVEIERTVAAPSVFIFPPSDEQLKSGTASVVCLLNNFYPREAKVQWKVDNALQSGNSQESVTEQDSKDSTYSLSSTLTLSKADYEKHKVYACEVTHQGLSSPVTKSFNRGEC | 3.6 | 12.2 | 0.3
4 | GpH7-A5/GpH7-B3 variant S267_03V/GpL16-k0 (antibody, human IgG1, kappa, Heterodimerized anti-glypican-3 IgG1; mutation in the GpH7-B3 chain only; also called He Ab) heavy 1: not shown heavy 2: not shown light: DIVMTQSPLSLPVTPGEPASISCQASESLVHSNRNTYLHWYLQKPGQSPQLLIYKVSNRFSGVPDRFSGSGSGTDFTLKISRVEAEDVGVYYCSQNTHVPPTFGQGTKVEIERTVAAPSVFIFPPSDEQLKSGTASVVCLLNNFYPREAKVQWKVDNALQSGNSQESVTEQDSKDSTYSLSSTLTLSKADYEKHKVYACEVTHQGLSSPVTKSFNRGEC | 116 | 192 | 0.61
5 | GpH7-A5/GpH7-B3 variant S267_12R/GpL16-k0 (antibody, human IgG1, kappa, Heterodimerized anti-glypican-3 IgG1; mutation in the GpH7-B3 chain only; also called He Ab) heavy 1: not shown heavy 2: not shown light: DIVMTQSPLSLPVTPGEPASISCQASESLVHSNRNTYLHWYLQKPGQSPQLLIYKVSNRFSGVPDRFSGSGSGTDFTLKISRVEAEDVGVYYCSQNTHVPPTFGQGTKVEIERTVAAPSVFIFPPSDEQLKSGTASVVCLLNNFYPREAKVQWKVDNALQSGNSQESVTEQDSKDSTYSLSSTLTLSKADYEKHKVYACEVTHQGLSSPVTKSFNRGEC | 3.6 | 11.3 | 0.32
6 | GpH7-A5/GpH7-B3 variant S267_02A/GpL16-k0 (antibody, human IgG1, kappa, Heterodimerized anti-glypican-3 IgG1; mutation in the GpH7-B3 chain only; also called He Ab) heavy 1: not shown heavy 2: not shown light: DIVMTQSPLSLPVTPGEPASISCQASESLVHSNRNTYLHWYLQKPGQSPQLLIYKVSNRFSGVPDRFSGSGSGTDFTLKISRVEAEDVGVYYCSQNTHVPPTFGQGTKVEIERTVAAPSVFIFPPSDEQLKSGTASVVCLLNNFYPREAKVQWKVDNALQSGNSQESVTEQDSKDSTYSLSSTLTLSKADYEKHKVYACEVTHQGLSSPVTKSFNRGEC | 155 | 243 | 0.64

Continued, values first:

Row | He/Con_2aR (FcγRIIa R [1]) [control = 100] | He/Con_2b (FcγRIIb) [control = 100] | He_2aR/2b (FcγRIIa R [2]) [ratio] | Binder
7 | 135 | 218 | 0.62 | GpH7-A5/GpH7-B3 variant S267_19Q/GpL16-k0 (antibody, human IgG1, kappa, Heterodimerized anti-glypican-3 IgG1; mutation in the GpH7-B3 chain only; also called He Ab) heavy 1: not shown heavy 2: not shown light: DIVMTQSPLSLPVTPGEPASISCQASESLVHSNRNTYLHWYLQKPGQSPQLLIYKVSNRFSGVPDRFSGSGSGTDFTLKISRVEAEDVGVYYCSQNTHVPPTFGQGTKVEIERTVAAPSVFIFPPSDEQLKSGTASVVCLLNNFYPREAKVQWKVDNALQSGNSQESVTEQDSKDSTYSLSSTLTLSKADYEKHKVYACEVTHQGLSSPVTKSFNRGEC
8 | -2.9 | 0.4 | -8.33 | GpH7-A5/GpH7-B3 variant V266_05P/GpL16-k0 (antibody, human IgG1, kappa, Heterodimerized anti-glypican-3 IgG1; mutation in the GpH7-B3 chain only; also called He Ab) heavy 1: not shown heavy 2: not shown light: DIVMTQSPLSLPVTPGEPASISCQASESLVHSNRNTYLHWYLQKPGQSPQLLIYKVSNRFSGVPDRFSGSGSGTDFTLKISRVEAEDVGVYYCSQNTHVPPTFGQGTKVEIERTVAAPSVFIFPPSDEQLKSGTASVVCLLNNFYPREAKVQWKVDNALQSGNSQESVTEQDSKDSTYSLSSTLTLSKADYEKHKVYACEVTHQGLSSPVTKSFNRGEC
9 | 81.9 | 104 | 0.78 | GpH7-A5/GpH7-B3 variant S267_14T/GpL16-k0 (antibody, human IgG1, kappa, Heterodimerized anti-glypican-3 IgG1; mutation in the GpH7-B3 chain only; also called He Ab) heavy 1: not shown heavy 2: not shown light: DIVMTQSPLSLPVTPGEPASISCQASESLVHSNRNTYLHWYLQKPGQSPQLLIYKVSNRFSGVPDRFSGSGSGTDFTLKISRVEAEDVGVYYCSQNTHVPPTFGQGTKVEIERTVAAPSVFIFPPSDEQLKSGTASVVCLLNNFYPREAKVQWKVDNALQSGNSQESVTEQDSKDSTYSLSSTLTLSKADYEKHKVYACEVTHQGLSSPVTKSFNRGEC
